This note sets out measurements from the nanobody polyreactivity screen of Harvey et al. (2022).

The series can be described thus: yeast display, Sf9 membrane polyspecificity reagent, FACS + sequencing; frameworks hold sequencing errors. The method in brief: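 Polyreactivity labels are assigned by the sorting gate from which each nanobody was recovered. The gates were low and high (top ~1%), set on anti-HA fluorescence for expression and streptavidin fluorescence for reagent binding. Before sorting, galactose-induced (36–48 hours) yeast display cells were stained for 1 hour at 4 °C with 10% biotinylated, detergent-solubilized Sf9 membrane reagent.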
As to “QVQLVESGGGLVQAGGSLRLSCAASGRIFSYNAMGWYRQAPGKERELVAAISSDGSTYYADSVKGRFTISRDNAKNSVYLQMNSLKPEDTAVYYCAADTWRDGDDYWGQGTQVTVSS”, the “polyreactivity (PSR sort gate)” value is “low polyreactivity”.
As for “QVQLVESGGGLVQAGGSLRLSCAASGRIFSYNAMGWYRQAPGKERELVASISWSGGRTYYADSVKGRFTISRDNAKNTVYLQMNSLKPEDTAVYYCNAAYYTRVWGYDYWGQGTQVTVSS”, the “polyreactivity (PSR sort gate)” value is “high polyreactivity”.
Turning to “QVQLVESGGGLVQAGGSLRLSCAASGRIFSYYAMGWYRQAPGKERELVAAISKGGTSTYYADSVKGRFTISRDNSKNTVYLQMNRLKPEDTAVYYCAAARPKPVDYLGQGTQVTVSS”, the “polyreactivity (PSR sort gate)” value was “high polyreactivity”.
“QVQLVESGGGLVQAGGSLRLSCAASGRIFSYYAMGWYRQAPGKERELVASISTSSGSTYYADSVKGRFTISRDNAKNTVYLQMNSLKPEDTAVYYCNADYTGYYRWRNDDYWGQGTQVTVSS”: the “polyreactivity (PSR sort gate)” value was “high polyreactivity”.
The result for “QVQLVESGGGLVQAGGSLRLSCAASGRIFSYYAMGWYRQAPGKERELVASITSGGSTYADSVKGRFTISRDNAKNTVYLQMNSLKPEDTAVYYCNARKRHYYGYYYWGQGTQVTVSS” reads “high polyreactivity”; that for “QVQLVESGGGLVQAGGSLRLSCAASGRIFSYYTMGWYRQAPGKEREMVAAITWNGGSTYYADSVKGRFTISRDNAKNTVYLQMNSLKPEDTGVYYCNRDVRYVGPSGFDYWGQGTQVTVSS”, “high polyreactivity”.
The result for “QVQLVESGGGLVQAGGSLRLSCAASGRIFSYYTMGWYRQAPGTERELVAAITWGGGSTSYADSVKGRFTISRDNAKNTVYLQMNSLKPEDTAVYYCAESPGANRMDYWGQGTQVTVSS” reads “low polyreactivity”; that for “QVQLVESGGGLVQAGGSLRLSCAASGRIFSYYTMGWYRQEPRKERELVATITSGVNTNYADSVKGRFTISRDNAKNTVYLQMNSLKPEDTAVFYCIARGTAERDYWGQGTQVTVSS”, “high polyreactivity”.
Take “QVQLVESGGGLVQAGGSLRLSCAASGRIFSYYVMGWSRQAPGKERELVAAISYRGGGTYYADSVKGRFTISRDNAKNTVYLQMNSLKPEDTAVYYCNADTYSNTYRAYDYWGQGTQVTVSS”: the “polyreactivity (PSR sort gate)” value is reported as “low polyreactivity”.
Take “QVQLVESGGGLVQAGGSLRLSCAASGRIFTANAMGWYRQAPGKERELVAAISWRGGSTYYADSVKGRFTISRDNAKNTVYLQMNSLKPEDTAVYYCNKVGATWRQWFGYWGQGTQVTVSS”: the “polyreactivity (PSR sort gate)” value is on record as “high polyreactivity”.
Turning to “QVQLVESGGGLVQAGGSLRLSCAASGRIFTAYTMGWYRQAPGKERELVAAISTSGTSTYYADSVKGRFTISRDNAKNTVYLQMHSLKPEDTAVYYCATDYYYYPHSQYDYWGQGTQVTVSS”, the “polyreactivity (PSR sort gate)” value is “low polyreactivity”.
The same measure for “QVQLVESGGGLVQAGGSLRLSCAASGRIFTEYVMGWYRQAPGKERELVAAAITRGGSTNYADSVKGRFTISRDNAKNTVYLQMNSLKPEDTAVYYCNKDDWPVSRQLYTGKYDSWGQGTQVTVSS”: “low polyreactivity”.
As for “QVQLVESGGGLVQAGGSLRLSCAASGRIFTGNALGWYRPAPGKERELVAGISTSGGSTYYADSVKGRFTISRDNAKNTVYLQMNSLKPEDTAVYYCAADWYYRRSYRRMNYWGQGTQVTVSS”, the “polyreactivity (PSR sort gate)” value is given as “high polyreactivity”.
With “QVQLVESGGGLVQAGGSLRLSCAASGRIFTGNTMGWYRQAPGKERELVATINSNGGSTYYADSVKGRFTISRDNAKNTVYLQMNSLKPEDTAVYYCAVVRNYVSRYRFYYWGQGTQVTVSS”, the “polyreactivity (PSR sort gate)” value is listed as “high polyreactivity”.
Consider “QVQLVESGGGLVQAGGSLRLSCAASGRIFTGNVMGWYRQAPGKERELVAAITYRGGSTYYADSVKGRFTISRDNAKNTVYLQMNSLKPEDTAVYYCAAGYFLGHTYGGDYWGQGTQVTVSS”, for which the “polyreactivity (PSR sort gate)” value is listed as “low polyreactivity”.
For “QVQLVESGGGLVQAGGSLRLSCAASGRIFTGYAMGWSRQAPGKERELVASITWRGGSTSYADSVKGRFTISRDNAKNTVYLQMNRLKPEDTAVYYCAAQKWYYPYYWGQGTQVTVSS”, the “polyreactivity (PSR sort gate)” value was “high polyreactivity”.
In the case of “QVQLVESGGGLVQAGGSLRLSCAASGRIFTGYAMGWYRQAPGKERELVAAINSGGRTNYADSVKGRFTISRDNAKNTVYLQMNSLKPEDTAVYYCAARYTNYGGYYWGQGTQVTVSS”, the “polyreactivity (PSR sort gate)” value is reported as “high polyreactivity”.
As to “QVQLVESGGGLVQAGGSLRLSCAASGRIFTGYAMGWYRQAPGKERELVAAISRGGSTNYADSVKGRFTISRDNAKNTVFLQMNSLKPEDTAVYYCAAGVHWDRGDYWGQGTQVTVSS”, the “polyreactivity (PSR sort gate)” value is on record as “low polyreactivity”.
In the case of “QVQLVESGGGLVQAGGSLRLSCAASGRIFTHNAMGWYRQAHGKERELVAAISFSGVSTYYADSVKGRFTISRDNAKNTVYLQMNSLKPEDTAVYYCARRYWYPDAFYRYDYWGQGTQVTVSS”, the “polyreactivity (PSR sort gate)” value is recorded as “low polyreactivity”.
Consider “QVQLVESGGGLVQAGGSLRLSCAASGRIFTHNAMGWYRQAHGKERELVAAISYSGVSTYYADSVKGRFTISRDNAKNTVYLQMNSLIPEDTAVYYCARRYWYPDAFYRYDYWGQGTQGTVSS”, for which the “polyreactivity (PSR sort gate)” value is given as “low polyreactivity”.
For the sequence “QVQLVESGGGLVQAGGSLRLSCAASGRIFTHNAMGWYRQAPGKERELVAAITIGGRTNYADSVKGRFTISRDNAKNTVYLQMNSLKPEDTAVYYCARRYGTWNAYDYWGQGTQVTVSS”, the “polyreactivity (PSR sort gate)” value is reported as “low polyreactivity”.
With “QVQLVESGGGLVQAGGSLRLSCAASGRIFTHYAMGWYRQAPGKERELVAAISRTGGTTNYADSVKGRFTISRDNAKNTVYLQMNSLKPEDTAVYYCAAVGKGAKDYFKYYSLGQGTQVTVSS”, the “polyreactivity (PSR sort gate)” value is “high polyreactivity”.
As for “QVQLVESGGGLVQAGGSLRLSCAASGRIFTINAMGWYRQAPGKERELVAAISNSGGRTYADSVKGRFTISRDNAKNTVYLLMNSLKAEDTAVYYCAKRYRFHFWGQGTQVTVSS”, the “polyreactivity (PSR sort gate)” value was “low polyreactivity”.
Turning to “QVQLVESGGGLVQAGGSLRLSCAASGRIFTIYAMGLYRQEPGKERELVASITWRGGRTYYADSVKGRFTISRDNAKNTVYLQMNSLKPEDTAVYYCAAEFYRWGSLSFSYDYWGQGTQVTVSS”, the “polyreactivity (PSR sort gate)” value is listed as “low polyreactivity”.
As to “QVQLVESGGGLVQAGGSLRLSCAASGRIFTKNAMGWYRQAPGKERELVAAISWSTSRTYYADSVKGRFTISRDNAKNTVYLQMNSLKPEDTAVYYCAAVYRLRGAFSRGYWGQGTQVTVSS”, the “polyreactivity (PSR sort gate)” value is listed as “high polyreactivity”.
“QVQLVESGGGLVQAGGSLRLSCAASGRIFTKYAMGWYRQAPGKERELVAAISGSGGPTYYADSVKGRFTISRDNAKNTVYLQINSLKPEDTAVYYCGVPEIFDPKYQNDYWGQGTQVTVSS”: the “polyreactivity (PSR sort gate)” value was “low polyreactivity”.
“QVQLVESGGGLVQAGGSLRLSCAASGRIFTKYAMGWYRQAPGKERELVAGISSSGGSTYYADSVKGRFTISRDIAKNTVYLQMNSLKPEDTAVYYCAARGYYKYDYWGQGTQVTVSS”: the “polyreactivity (PSR sort gate)” value is “high polyreactivity”.
The same measure for “QVQLVESGGGLVQAGGSLRLSCAASGRIFTKYAMGWYRQSPGKERELVAAITTSGGSTYYADSVKGRFTISRDNAKNTVYLQMNSLKPEDTAVYYCAARTYHRYDYWGQGTQVTVSS”: “high polyreactivity”; for “QVQLVESGGGLVQAGGSLRLSCAASGRIFTNNAMGWYREAPGKERELVAAISKRGGSTYYADSVKGRFTISRDNAKNTVYLQMNSLKPEDTAVYYCNAREYIHWRGALGLFGSWGQGTQVTVSS”: “high polyreactivity”.
With “QVQLVESGGGLVQAGGSLRLSCAASGRIFTPNAMGWYRQAPGKERELVAAITWSGDNTYADSVKGRFTISRDNAKNTVYLQMNSLKPEDTAVYYCAAAYGYGHKKYGYWGQGTQVTVSS”, the “polyreactivity (PSR sort gate)” value is given as “low polyreactivity”.
The same measure for “QVQLVESGGGLVQAGGSLRLSCAASGRIFTPNAMGWYRQPPGKERELVAAITWSGDNTYADSVKGRFTISRDNAKNTVYLQMNILKPEDTAVYYCAAAYGYGHKKYGYWGQGTQVTVSS”: “low polyreactivity”; for “QVQLVESGGGLVQAGGSLRLSCAASGRIFTPYVMGWYIQAPGKERELVADINLSGDSTSYADSVKGRFTISRDNAKNTVYLQMNSLKPEDTAVYYCAADFWLVSFQWDFEYDYWGQGTHVTVSS”: “low polyreactivity”.
As to “QVQLVESGGGLVQAGGSLRLSCAASGRIFTRYAMGWYRQAPGKERELVATITKSGGSTYYADSVKGRFTISRDNAKNTVSLQMNSQKPDDTAVYYCAADSWWTYQYDYWGQGTQVTVSS”, the “polyreactivity (PSR sort gate)” value is reported as “low polyreactivity”.
Regarding “QVQLVESGGGLVQAGGSLRLSCAASGRIFTRYAMGWYRQAPGKERELVAVITRSGGSTYYADSVKGRFTISRDNAKNTVYLQMNSLKPEDTAVYYCNVDETGVLVAYSFDYWGQGTQVTVSS”, the “polyreactivity (PSR sort gate)” value was “low polyreactivity”.
On to “QVQLVESGGGLVQAGGSLRLSCAASGRIFTRYVMGWSRQAPGKERELVAAISYRGGRTYYADSVKGRFTISRDNAKNTVYLQMNSLKPEDTAVYYCAVDYTLADVIYDYWGQGTQVTVSS”, for which the “polyreactivity (PSR sort gate)” value is listed as “high polyreactivity”.
The same measure for “QVQLVESGGGLVQAGGSLRLSCAASGRIFTSNAMAWYRQAPGKERELVAAISASGGRTYYADSVKGRFTISRDNAKNTVYLQMNSLKPEDTAVYYCAALSTGRLSDHGYWGQGTQVTVSS”: “high polyreactivity”.
As for “QVQLVESGGGLVQAGGSLRLSCAASGRIFTSYAKGWYRQAPGKERELVAAISRSGGSTYYADSVKGRFTISRDNAKNTVYLQMHSLKPEDTALYYCAKARVVAGYDYWGQGTQVTVSS”, the “polyreactivity (PSR sort gate)” value is reported as “high polyreactivity”.
With “QVQLVESGGGLVQAGGSLRLSCAASGRIFTTYALGWYRQAPGKERELVATITSGGDTSYADSVKGRFTISRDNAKNTVYLQMNSLKPEDTAVYYCNVGASLDQCSIPFEGYYYWGQGTQVTVSS”, the “polyreactivity (PSR sort gate)” value is given as “low polyreactivity”.
For “QVQLVESGGGLVQAGGSLRLSCAASGRIFTTYAMGWYRQAPGKERELVAAISRSGGSTYYADSVKGRFTISRDNAKNTVYLQMKSLKPEDTAVYYCAAVPTSNSFRSSFYYWGQGTQVTVSS”, the “polyreactivity (PSR sort gate)” value is recorded as “high polyreactivity”.
Take “QVQLVESGGGLVQAGGSLRLSCAASGRIFTTYAMGWYRQAPGKERELVAAISRSGGSTYYADSVKGRFTISRDNAKNTVYLQMNSLKPEDTAVYYCAAVPTSNSFRSSFYYWGQGTEVTVSS”: the “polyreactivity (PSR sort gate)” value is given as “high polyreactivity”.
For “QVQLVESGGGLVQAGGSLRLSCAASGRIFTTYAMGWYSRGPGKERELVAAISQNGGSTYYADSVKGRFTISRDNAKNTVYLQMNSLKPEDTAVYYCNAGPAGYYDYDYRGQGTQVTVSS”, the “polyreactivity (PSR sort gate)” value is “low polyreactivity”.
